Data on 3 molecules can be found in paper PMC5906529, “Conserved Bacterial-Binding Peptides of the Scavenger-Like Human Lymphocyte Receptor CD6 Protect From Mouse Experimental Sepsis” (Frontiers in Immunology, 2018).

Data set [1] is described as follows: Solid phase binding assay (ELISA). Details: species or system E. coli O111:B4. As to conditions: biotin-labeled peptides/proteins 5–20 µg/mL, overnight 4°C, HRP-streptavidin/TMB, OD 405–620 nm. As for the experimental part: (§1) 96-well microtiter plates (Nunc, Roskilde, Denmark) were coated overnight at 4°C with 5 µg/mL of purified LPS (from E. coli O111:B4, Sigma L2630) or LTA (from S. aureus, Sigma L2515) in PBS and then incubated for 2 h at room temperature in blocking solution (20 mM Tris-HCl pH 7.4 plus 0.05% Tween 20 and 1% BSA). Biotin-labeled peptides/proteins (2.5–20 µg/mL) were added and incubated overnight at 4°C in blocking solution. After extensive washing, bound peptides/proteins were detected by the addition of horseradish peroxidase-labeled streptavidin (1:5,000 dilution; DAKO) for 1 h at room temperature. Color was developed by adding 3,3’,5,5’-tetramethylbenzidine liquid substrate (Sigma) and optical density read at 405–620 nm.
(§2) Figure 3 Analysis of the direct binding characteristics of CD6-derived peptides to purified pathogen-associated molecular patterns (PAMPs) from Gram-negative and Gram-positive origin. […] Following overnight incubation at 4°C bound peptides or proteins were developed by addition of horseradish peroxidase–streptavidin and 3,3’,5,5’-tetramethylbenzidine substrate and further readings at OD 405–620 nm. Results are expressed as mean ± SD of duplicates from one representative experiment of three performed. […] (C) Apparent Kd values and Hill coefficients for the binding of peptides and proteins in study to LPS and LTA determined by tryptophan fluorescence. […]
A general note: An ELISA detects its analyte on a solid surface through an enzyme-linked reagent.

A short description of data set [2]: Solid phase binding assay (ELISA). Details: species or system S. aureus. As to conditions: biotin-labeled peptides/proteins 5–20 µg/mL, overnight 4°C, HRP-streptavidin/TMB, OD 405–620 nm. As for the experimental part: as §1, §2
Data set [3] in a line: Intrinsic (tryptophan) fluorescence binding. The arrangement: species or system Salmonella minnesota serotype Re 595. As to conditions: excitation 295 nm, peptide/protein 10 µg/mL in PBS pH 7.2, Hill equation fit, mean ± SD of three experiments, read-out: Re-LPS Kd ± σ (apparent Kd). As for the experimental part:
(§3) To explore the ability of different peptides/proteins to bind LTA (Mr = 14,000, from S. aureus; Sigma) and rough LPS (Re-LPS, Mr = 2,500, from Salmonella minnesota serotype Re 595; Sigma), binding studies were carried out in an AB2 spectrofluorometer with a thermostated cuvette holder (±0.1°C), using 5 mm × 5 mm path length quartz cuvettes as described ([30]). Re-LPS concentration was assessed by quantification of 2-keto-3-deoxyoctulosonic acid ([31]). Peptide/protein samples (10 µg/mL) were titrated with different amounts of a stock solution of either LTA or Re-LPS in phosphate buffered saline (PBS) pH 7.2, and the Trp fluorescence emission spectra recorded with excitation at 295 nm. The fluorescence intensity readings were corrected for the dilution caused by […]. […] The apparent dissociation constant (Kd) of peptide/protein–ligand complexes were obtained by non-linear least-squares fitting to the Hill equation of the change in peptide fluorescence at 353 nm with the amount of added LTA or Re-LPS ([31]): ΔF/ΔFmax = [L]^n/([L]^n + Kd), where ΔF is the change in fluorescence intensity at 353 nm relative to the intensity of free peptide; ΔFmax is the change in fluorescence intensity at saturating LTA or Re-LPS concentrations; [L] is the molar concentration of free ligand; and n is the Hill coefficient. […]

Data set [4] is described as follows: Intrinsic (tryptophan) fluorescence binding. Details: species or system S. aureus. As to conditions: excitation 295 nm, peptide/protein 10 µg/mL in PBS pH 7.2, Hill equation fit, mean ± SD of three experiments, read-out: LTA Kd ± σ (apparent Kd). The protocol: as §3
Data set [5] in a line: Endotoxin adsorption on coated Eupergit beads (LAL assay). As to conditions: peptide/protein immobilized on Eupergit beads, 50 UI/mL LPS, 0–150 min, room temperature, vs HSA- and rshCD5-coated controls, preliminary. The protocol:
CD6.PD1 and CD6.PD2 high affinity (and also CD6.PD3) to LPS and LTA makes these peptides suitable candidates for new supportive non-antibiotic strategies against sepsis. One such possibility would be the adsorption of circulating bacterial toxins by CD6-derived peptides covalently coupled to a solid phase. Preliminary results obtained by incubating an endotoxin solution (50 UI/mL LPS) with Eupergit® beads coated with different CD6-derived peptides (CD6.PD2 and CD6.PD3) or proteins (HSA, rshCD5, and rshCD6) for different periods of time support this approach (Figure S2 in Supplementary Material). […]
Supplementary Figure S1. Binding of rshCD6 protein, and CD6 (CD6.PD1, CD6.PD2, and CD6.PD3) and DMBT-1/SAG (pbs1)-derived peptides to LPS and LTA determined by tryptophan fluorescence. […] Peptide samples (with and without either Re-LPS or LTA) and blank samples (Re-LPS or LT A alone) were ex cited at 295 nm, and the emission spectra recorded from 300 to 400 nm. Results are expressed as the change in peptide fluorescence ( ΔF) at the wavelength of the emission maxima (353 nm for the peptides and 337 nm for rshCD6 protein) in the presence and absence of either Re- LPS or LT A. Results are means ± SD of 3 experiments. Peptide fluorescence changes at 353 nm were fitt ed to the Hill equation. […]

Data set [6] concerns the molecule itself. As to the kind of experiment: dynamic light scattering; peptide alone, 10 µg/mL in PBS, 25°C, Zetasizer Nano S; hydrodynamic diameter of the particles in solution.

Where two headings read alike, the source gives them in different places.

B1: rshCD5: recombinant soluble human CD5 protein, negative control (protein, UniProt P06127 25-372, looked up)
extracellular domain: RLSWYDPDFQARLTRSNSKCQGQLEVYLKDGWHMVCSQSWGRSSKQWEDPSQASKVCQRLNCGVPLSLGPFLVTYTPQSSIICYGQLGSFSNCSHSRNDMCHSLGLTCLEPQKTTPPTTRPPPTTTPEPTAPPRLQLVAQSGGQHCAGVVEFYSGSLGGTISYEAQDKTQDLENFLCNNLQCGSFLKHLPETEAGRAQDPGEPREHQPLPIQWKIQNSSCTSLEHCFRKIKPQKSGRVLALLCSGFQPKVQSRLVGGSSICEGTVEVRQGAQWAALCDSSSARSSLRWEEVCREQQCGSVNSYRVLDAGDPTSRGLFCPHQKLSQCHELWERNSYCKKVFVTCQDPNP
modifications: extracellular domain
notes: recombinant soluble human CD5 protein, negative control
B1: the “Binding to solid-phase bound LPS” value in data set [1] is given as “no significant binding”. Also, in data set [2], the “Binding to solid-phase bound LTA” value is “no significant binding”.

B2: rshCD6: recombinant soluble human CD6 ectodomain (protein, UniProt P30203 18-402, looked up)
extracellular domain: HPSPAPPDQLNTSSAESELWEPGERLPVRLTNGSSSCSGTVEVRLEASWEPACGALWDSRAAEAVCRALGCGGAEAASQLAPPTPELPPPPAAGNTSVAANATLAGAPALLCSGAEWRLCEVVEHACRSDGRRARVTCAENRALRLVDGGGACAGRVEMLEHGEWGSVCDDTWDLEDAHVVCRQLGCGWAVQALPGLHFTPGRGPIHRDQVNCSGAEAYLWDCPGLPGQHYCGHKEDAGAVCSEHQSWRLTGGADRCEGQVEVHFRGVWNTVCDSEWYPSEAKVLCQSLGCGTAVERPKGLPHSLSGRMYYSCNGEELTLSNCSWRFNNSNLCSQSLAARVLCSASRSLHNLSTPEVPASVQTVTIESSVTVKIENKESRELMLL
modifications: extracellular domain
notes: recombinant soluble human CD6 ectodomain
For the molecule B2, the Kd was determined as 630 ± 10 nM in data set [3] and 11 ± 4 nM in data set [4]. In addition, in data set [1], the “Binding to solid-phase bound LPS” value is on record as “dose-dependent binding”. Moreover, the “Binding to solid-phase bound LTA” value in data set [2] is reported as “dose-dependent binding”. For the same molecule, the “Endotoxin levels after incubation with coated beads” value in data set [5] is given as “reduced endotoxin levels”.

B3: CD6.PD3 peptide (peptide)
peptide: GQVEVHFRGVW
notes: source: synthetic peptide, manufactured by ProteoGenix (>80% purity)
Consider B3, for which the binding result in data set [6] was “binds”.
